# Data from patent US11427869B2, “T cell balance gene expression, compositions of matters and methods of use thereof” (THE BROAD INSTITUTE, INC., priority 2015, dated 2022).
# Test system: Th17 cells
# Assay: qPCR of Cd5l expression in differentiated T cells
# Assay type: cell-based, mouse
# Details: naïve T cells differentiated with TGF-β1+IL-6 for 48h, expanded in IL-23 in fresh media, 72h
# Experimental: FIG. 16A-16I. CD5L is a candidate regulator of Th17 cell functional states. (FIG. 16A-FIG. 16C) Single-cell RNA-seq analysis. (FIG. 16A) Cd5l expression of single-cells from in-vitro generated and in-vivo sorted Th17 cells (IL-17.GFP+) from mice at the peak of EAE. […] (FIG. 16D-FIG. 16F) Validation of CD5L expression in vitro. Naïve T cells (CD4+CD62L+CD44−CD25−) were sorted and differentiated as indicated and analyzed by qPCR for CD5L expression at 48h (D) and 72h (E) and by flow cytometry at 48h (F); (E) IL-23 or control was added at 48h in fresh media. (FIG. 16G-FIG. 16I) Validation of Cd5l expression in vivo. (G,H) IL-17A.GFP reporter mice were immunized to induce EAE. Cells were sorted from spleen (G) and CNS (H) at the peak of disease. Cd5l and Il17a expression are measured by qPCR. Figure shown is representative data of three technical replicates from two independent experiments. (I) Cells were sorted from the gut of naïve mice and the number of RNA transcripts measured by nanostring nCounter platform.
# Next, Applicants explored whether CD5L expression is associated with less pathogenic Th17 cells in vivo. Applicants analyzed Th17 cells isolated from mice induced with EAE. […] Next, Applicants analyzed Th17 cells from mesenteric lymph nodes (mLN) and lamina propria (LP) of naïve mice, where Th17 cells contribute to tissue homeostasis and mucosal barrier function. […]
molecule,measurement,value
"IL-23: recombinant mouse IL-23 (R&D), 20 ng/ml (protein, UniProt Q9EQ14 22-196; P43432 23-335, looked up) Interleukin-23 subunit alpha: VPRSSSPDWAQCQQLSRNLCMLAWNAHAPAGHMNLLREEEDEETKNNVPRIQCEDGCDPQGLKDNSQFCLQRIRQGLAFYKHLLDSDIFKGEPALLPDSPMEQLHTSLLGLSQLLQPEDHPRETQQMPSLSSSQQWQRPLLRSKILRSLQAFLAIAARVFAHGAATLTEPLVPTA Interleukin-12 subunit beta: MWELEKDVYVVEVDWTPDAPGETVNLTCDTPEEDDITWTSDQRHGVIGSGKTLTITVKEFLDAGQYTCHKGGETLSHSHLLLHKKENGIWSTEILKNFKNKTFLKCEAPNYSGRFTCSWLVQRNMDLKFNIKSSSSSPDSRAVTCGMASLSAEKVTLDQRDYEKYSVSCQEDVTCPTAEETLPIELALEARQQNKYENYSTSFFIRDIIKPDPPKNLQMKPLKNSQVEVSWEYPDSWSTPHSYFSLKFFVRIQRKKEKMKETEEGCNQKGAFLVEKTSTEVQCKGGNVCVQAQDRYYNSSCSKWACVPCRVRS",Cd5l expression (qPCR),suppressed
